The record followed here is US20200317768A1 (published 2020).

As a reminder, the Kd is a measure of binding affinity in units of concentration.

Residue numbers refer to the chain shown, from its start.

Assay [1] addresses T1, human FcγRIIIaV extracellular domain with C-terminal His-tag (human, UniProt P08637 17-208).
T1 construct: also called human FcgRIIIaV
The experiment in a line: SPR (BIACORE), antibody captured, FcgR analyte. For orientation: In SPR one partner is held on a chip, and binding of the other changes the refractive index at the surface.

Assay [2] addresses T2, cynomolgus monkey FcγRIIa1 extracellular domain with C-terminal His-tag (cynomolgus monkey).
T2 construct: also called cyno FcgRIIa1; cynoFcγRIIa1
T2 chain: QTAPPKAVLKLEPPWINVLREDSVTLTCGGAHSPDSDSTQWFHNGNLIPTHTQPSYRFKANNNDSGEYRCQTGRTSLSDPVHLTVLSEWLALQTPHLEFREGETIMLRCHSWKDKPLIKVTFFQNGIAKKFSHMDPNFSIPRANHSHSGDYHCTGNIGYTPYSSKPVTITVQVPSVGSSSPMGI
The experiment in a line: SPR (BIACORE), antibody captured, FcgR analyte.

T1 sequence (P08637 17-208 F176V): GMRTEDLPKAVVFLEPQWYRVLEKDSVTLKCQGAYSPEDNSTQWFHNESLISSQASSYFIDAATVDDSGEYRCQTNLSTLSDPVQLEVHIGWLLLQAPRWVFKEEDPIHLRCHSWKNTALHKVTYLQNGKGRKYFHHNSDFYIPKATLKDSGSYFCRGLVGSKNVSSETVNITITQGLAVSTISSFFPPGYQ

B1: M103205H795-MY209/M103202L889-SK1 (antibody, human IgG1, kappa)
heavy: QVTLKESGPVLVKPTETLTLTCTVSGIDLSHDDISWVRQAPGKGLEWVGIISYAGSTYYASWAKGRLTISKDTSKNQVVLTMTNMDPVDTATYYCARGVPAYSHGGDLWGQGTLVTVSSASTKGPSVFPLAPSSKSTSGGTAALGCLVKDYFPEPVTVSWNSGALTSGVHTFPAVLQSSGLYSLSSVVTVPSSSLGTQTYICNVNHKPSNTKVDKKVEPKSCDKTHTCPPCPAPELLNGPSVFLFPPKPKDTLMISRTPEVTCVVVDVSDEDPEVKFNWYVDGVEVHNAKTKPREELYNSTYRVVSVLTVLHQDWLNGKEYKCKVSNTALPKPIEKTISKAKGQPREPQVYTLPPSREEMTKNQVSLTCLVKGFYPSDIAVEWESNGQPENNYKTTPPVLDSDGSFFLYSKLTVDKSRWQQGNVFSCSVMHEALHNHYTQKSLSLSP
light: DIVMTQSPATLSLSPGERATLSCTSSQSVYHANWLSWFQQKPGQPPKLLIYWASTLAYGVPSRFSGSGSGTDFTLTISSLQPEDAATYYCAGGYGGGRYAFGQGTKVEIKRTVAAPSVFIFPPSDEQLKSGTASVVCLLNNFYPREAKVQWKVDNALQSGNSQESVTEQDSKDSTYSLSSTLTLSKADYEKHKVYACEVTHQGLSSPVTKSFNRGEC
notes: Substitutions introduced into M103205H795-SG1, expressed with M103202L889-SK1 as light chain; EU numbering
For the molecule B1, the results for the Kd in assay [1] and in assay [2] were 14 µM and 0.63 µM, respectively.

B2: M103205H795-MY341/M103202L889-SK1 (antibody, human IgG1, kappa)
heavy: B1 heavy with N238L, P398K
light: B1 light
notes: as for B1
Consider B2, for which the figures for the Kd in assay [1] and in assay [2] were 7 µM and 2.5 µM, respectively.

B3: M103205H795-MY529/M103202L889-SK1 (antibody, human IgG1, kappa)
heavy: B1 heavy with L236W, N238T, T328K
light: B1 light
notes: as for B1
Take B3: the Kd in assay [1] was 4 µM; in assay [2] it was 1 µM.

B4: M103205H795-MY340/M103202L889-SK1 (antibody, human IgG1, kappa)
heavy: B1 heavy with N238L, T328K, P398K
light: B1 light
notes: as for B1
As to B4, the Kd in assay [1] was 17 µM; in assay [2], 4.3 µM.

B5: M103205H795-MY386/M103202L889-SK1 (antibody, human IgG1, kappa)
heavy: B1 heavy with N238L
light: B1 light
notes: as for B1
Turning to B5, the Kd in assay [1] was found to be 24 µM; in assay [2], 5.2 µM.

B6: M103205H795-MY389/M103202L889-SK1 (antibody, human IgG1, kappa)
heavy: B1 heavy with N238T, S241L, L297Q, T328K
light: B1 light
notes: as for B1
B6: the Kd in assay [1] was found to be 3.5 µM; in assay [2] it was 2 µM.

B7: M103205H795-MY283/M103202L889-SK1 (antibody, human IgG1, kappa)
heavy: B1 heavy with N238T, T328K
light: B1 light
notes: as for B1
With B7, the values for the Kd in assay [1] and in assay [2] were 5.7 µM and 1.4 µM, respectively.

B8: M103205H795-MY515/M103202L889-SK1 (antibody, human IgG1, kappa)
heavy: B1 heavy with N238T, S300L, T328K
light: B1 light
notes: as for B1
As for B8, the Kd in assay [1] was 9 µM; in assay [2] it was 0.14 µM.

B9: M103205H795-MY387/M103202L889-SK1 (antibody, human IgG1, kappa)
heavy: B1 heavy with N238T, S241V, L297Q, T328K
light: B1 light
notes: as for B1
Turning to B9, the Kd in assay [1] turned out to be 4.7 µM; in assay [2], 2.3 µM.

B10: M103205H795-MY521/M103202L889-SK1 (antibody, human IgG1, kappa)
heavy: B1 heavy with P234D, N238T, T328K
light: B1 light
notes: as for B1
Turning to B10, the Kd in assay [1] amounted to 5.2 µM; in assay [2], 2.5 µM.

B11: M103205H795-MY525/M103202L889-SK1 (antibody, human IgG1, kappa)
heavy: B1 heavy with A233T, N238T, S241V, L297Q, T328K
light: B1 light
notes: as for B1
For the molecule B11, the values for the Kd in assay [1] and in assay [2] were 4.3 µM and 1.6 µM, respectively.

B12: M103205H795-MY339/M103202L889-SK1 (antibody, human IgG1, kappa)
heavy: B1 heavy with N238L, L297Q, P398K
light: B1 light
notes: as for B1
B12: the Kd was 5.6 µM in assay [1] and 3.4 µM in assay [2].

B13: M103205H795-MY520/M103202L889-SK1 (antibody, human IgG1, kappa)
heavy: B1 heavy with P234D, N238T, S241V, T328K
light: B1 light
notes: as for B1
For B13, the dissociation constant Kd in assay [1] was 3.5 µM; in assay [2] it was 2.5 µM.

B14: M103205H795-MY532/M103202L889-SK1 (antibody, human IgG1, kappa)
heavy: B1 heavy with L236W, N238T, S241V, L297Q, T328K
light: B1 light
notes: as for B1
With B14, the Kd in assay [1] was 1.7 µM; in assay [2], 0.77 µM.

B15: M103205H795-MY528/M103202L889-SK1 (antibody, human IgG1, kappa)
heavy: B1 heavy with L236W, N238T, L297Q, T328K
light: B1 light
notes: as for B1
Consider B15, for which the figures for the Kd in assay [1] and in assay [2] were 4.2 µM and 1.4 µM, respectively.

B16: M103205H795-MY530/M103202L889-SK1 (antibody, human IgG1, kappa)
heavy: B1 heavy with N238T, L297Q
light: B1 light
notes: as for B1
Take B16: the results for the Kd in assay [1] and in assay [2] were 3.6 µM and 0.013 µM, respectively.

B17: M103205H795-MY524/M103202L889-SK1 (antibody, human IgG1, kappa)
heavy: B1 heavy with A233G, N238T, T328K
light: B1 light
notes: as for B1
Consider B17, for which the Kd in assay [1] was 4.5 µM; in assay [2], 1 µM.

B18: M103205H795-MY514/M103202L889-SK1 (antibody, human IgG1, kappa)
heavy: B1 heavy with N238T, S241V, L297Q, S300L, T328K
light: B1 light
notes: as for B1
Regarding B18, the figures for the Kd in assay [1] and in assay [2] were 8.8 µM and 0.26 µM, respectively.

B19: M103205H795-MY392/M103202L889-SK1 (antibody, human IgG1, kappa)
heavy: B1 heavy with N238T, L297Q, S300L, T328K
light: B1 light
notes: as for B1
For the molecule B19, the Kd in assay [1] came to 8.3 µM; in assay [2] it was 0.3 µM.

B20: M103205H795-MY527/M103202L889-SK1 (antibody, human IgG1, kappa)
heavy: B1 heavy with A233T, N238T, T328K
light: B1 light
notes: as for B1
As for B20, the Kd was determined as 4.3 µM in assay [1] and 1.1 µM in assay [2].

B21: M103205H795-MY388/M103202L889-SK1 (antibody, human IgG1, kappa)
heavy: B1 heavy with N238T, S241I, L297Q, T328K
light: B1 light
notes: as for B1
For B21, the Kd was determined as 4.3 µM in assay [1] and 2.2 µM in assay [2].

B22: M103205H795-MY516/M103202L889-SK1 (antibody, human IgG1, kappa)
heavy: B1 heavy with N238T, S241V, S300L, T328K
light: B1 light
notes: as for B1
In the case of B22, the Kd in assay [1] was 6.7 µM; in assay [2], 0.15 µM.

B23: M103205H795-MY531/M103202L889-SK1 (antibody, human IgG1, kappa)
heavy: B1 heavy with L236W, N238T, L297Q
light: B1 light
notes: as for B1
Take B23: the Kd came out at 2.9 µM in assay [1] and 1.1 µM in assay [2].

B24: M103205H795-MY400/M103202L889-SK1 (antibody, human IgG1, kappa)
heavy: B1 heavy with N238T, L297Q, T328K, P333E
light: B1 light
notes: as for B1
As for B24, the Kd in assay [1] came out at 7.8 µM; in assay [2], 18 µM.

B25: M103205H795-MY342/M103202L889-SK1 (antibody, human IgG1, kappa)
heavy: B1 heavy with N238L, T328K, P398M
light: B1 light
notes: as for B1
B25: the Kd in assay [1] was 25 µM; in assay [2], 5.1 µM.

B26: M103205H795-MY380/M103202L889-SK1 (antibody, human IgG1, kappa)
heavy: B1 heavy with D270E, L297Q, T328K, P398K
light: B1 light
notes: as for B1
In assay [1], B26 yielded a Kd of 10 µM.

B27: M103205H795-MY526/M103202L889-SK1 (antibody, human IgG1, kappa)
heavy: B1 heavy with A233T, N238T, S241V, T328K
light: B1 light
notes: as for B1
Consider B27, for which the Kd in assay [1] turned out to be 4.3 µM; in assay [2] it was 13 µM.

B28: M103205H795-MY523/M103202L889-SK1 (antibody, human IgG1, kappa)
heavy: B1 heavy with A233G, N238T, S241V, T328K
light: B1 light
notes: as for B1
For the molecule B28, the Kd in assay [1] turned out to be 5.5 µM; in assay [2] it was 1.4 µM.

B29: M103205H795-MY522/M103202L889-SK1 (antibody, human IgG1, kappa)
heavy: B1 heavy with A233G, N238T, S241V, L297Q, T328K
light: B1 light
notes: as for B1
Regarding B29, the results for the Kd in assay [1] and in assay [2] were 5.7 µM and 1.7 µM, respectively.
